From the supplement of paper PMC10065799, “High-throughput profiling of sequence recognition by tyrosine kinases and SH2 domains using bacterial peptide display” (eLife, 2023)

Each sequence was assayed against FGFR3 (UniProt P22607) (assay: phosphorylation enrichment, bacterial display (enrichment ratio); higher = better substrate or ligand; peptides without Tyr show the background).
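Further: 11-residue human phosphosite peptides and single-mutation variants displayed on the E. coli surface, counted by deep sequencing, each peptide's frequency after selection divided by its frequency in the unselected input library; frequency after pTyr selection over input frequency; kinase dosed for 20-30% of maximal phosphorylation in three min.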

FGFR3, sequence (P22607 whole entry, looked up): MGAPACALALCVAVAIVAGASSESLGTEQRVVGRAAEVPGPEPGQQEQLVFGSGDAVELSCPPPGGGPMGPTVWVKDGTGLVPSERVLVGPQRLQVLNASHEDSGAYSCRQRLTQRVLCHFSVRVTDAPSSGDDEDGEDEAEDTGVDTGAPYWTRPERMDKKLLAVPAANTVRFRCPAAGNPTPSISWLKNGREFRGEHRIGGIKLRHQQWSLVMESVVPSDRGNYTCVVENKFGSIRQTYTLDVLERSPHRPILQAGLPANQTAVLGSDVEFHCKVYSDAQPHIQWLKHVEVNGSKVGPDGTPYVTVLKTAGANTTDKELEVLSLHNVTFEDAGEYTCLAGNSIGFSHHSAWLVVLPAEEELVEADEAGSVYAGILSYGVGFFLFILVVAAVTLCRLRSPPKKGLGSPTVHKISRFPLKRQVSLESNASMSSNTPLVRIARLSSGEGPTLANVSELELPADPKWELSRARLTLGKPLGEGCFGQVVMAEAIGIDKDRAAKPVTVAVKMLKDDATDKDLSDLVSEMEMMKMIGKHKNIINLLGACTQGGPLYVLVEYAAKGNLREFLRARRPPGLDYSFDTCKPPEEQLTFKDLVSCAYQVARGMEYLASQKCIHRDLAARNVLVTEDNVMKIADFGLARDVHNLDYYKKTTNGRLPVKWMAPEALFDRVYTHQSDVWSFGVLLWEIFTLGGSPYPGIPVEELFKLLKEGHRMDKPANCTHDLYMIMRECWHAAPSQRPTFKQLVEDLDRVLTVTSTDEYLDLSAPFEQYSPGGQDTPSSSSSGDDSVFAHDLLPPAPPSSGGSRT

Compared with VEKEKYVSYIS [JMJD1C_Y596_M591V], FQCKHYACIRQ [TIMP3_Y182_S179C_YF] is lower in phosphorylation enrichment: 0.567 for the first, 0.501 for the second.

Going from SDPIIYTLENI [ADGRE1_Y534] to KANEFYPVVLI [ADAMTS18_Y765_YF], the phosphorylation enrichment rises from 0.724 to 1.97.

Compared with PAVGIYNGNIN [CDCP1_Y707_D709G], KVGPGYLGSGG [RET_Y826] is lower in phosphorylation enrichment: 0.884 for the first, 0.392 for the second.

First: KYLENYYDLEK [MMP3_Y41_K45E]
Second: TENAGYFFRVS
The phosphorylation enrichment of the first is higher: 6.66 for the first, 0.853 for the second.

Going from EVESPYEVHDY [GIGYF2_Y1168] to IVAREYFSKAD [CAMK2B_Y107_E110K_YF], the phosphorylation enrichment falls from 0.792 to 0.402.

Going from QQLQGYIPSNY [FRK_Y99] to NFFDLYGGEKF [PTPN11_Y66_D61N_YF], the phosphorylation enrichment rises from 0.49 to 0.61.

Compared with LLPNAYIFVVQ [L1CAM_Y418_A415P_YF], GRRNTCYASIA [ACADM_Y352_Y352C] is lower in phosphorylation enrichment: 1.07 for the first, 0.432 for the second.

First: WIPNQYPIISE [NOG_Y222_I220N]
Second: TISPYYRQSLF [CRYAA_Y48]
The phosphorylation enrichment of the first is higher: 0.671 for the first, 0.653 for the second.

Compared with EILLSDLRTGF [TGM1_Y365_Y365D_YF], PLCPDYQEPSR [DDR2_Y481_R478C] is higher in phosphorylation enrichment: 0.56 for the first, 1.46 for the second.

Going from VLSIDYYFPPQ [AR_Y552_P549S] to FSKTQYNQVPR [CXADR_Y318_S323R_YF], the phosphorylation enrichment falls from 10.8 to 0.447.

Going from RAIELCNDKEK [OTULIN_Y244_Y244C] to FFVVRYCWLRR [MPZ_Y181_YF], the phosphorylation enrichment rises from 0.425 to 0.609.

First: NLNGKCNKPRA [ANGPTL3_Y417_Y417C]
Second: IPGGIYNADLN [CST4_Y35_D36N]
The phosphorylation enrichment of the first is lower: 0.446 for the first, 0.516 for the second.

Going from CTTIHYNYLCN [TP53_Y234_M237L] to TYGQVYKGRHV [TNIK_Y40], the phosphorylation enrichment falls from 0.594 to 0.533.

First: SIKDKYVTALY [KCNH2_Y611]
Second: TPRNTYKMTSV [MKI67_Y849_L854V]
The phosphorylation enrichment of the first is lower: 0.472 for the first, 0.474 for the second.

Compared with ATVRPYRPFII [LRP5_Y1528_A1525V_YF], TPRNTYKMTSL [MKI67_Y849] is lower in phosphorylation enrichment: 0.459 for the first, 0.445 for the second.

Compared with QDGFSYPSRQM [LDLR_Y847_YF], RRESPYGGGGG [FUS_Y526_R524S] is higher in phosphorylation enrichment: 0.325 for the first, 0.414 for the second.

In the case of DLDLTSIFPNI [PTEN_Y27_Y27S_YF], the phosphorylation enrichment is reported as 0.578.

The sequences below were run on Fer (mouse) in the same assay as above.

Going from VEKEKYVSYIS [JMJD1C_Y596_M591V] to FQCKHYACIRQ [TIMP3_Y182_S179C_YF], the phosphorylation enrichment falls from 0.466 to 0.379.

Going from SDPIIYTLENI [ADGRE1_Y534] to KANEFYPVVLI [ADAMTS18_Y765_YF], the phosphorylation enrichment falls from 7.52 to 0.82.

Going from PAVGIYNGNIN [CDCP1_Y707_D709G] to KVGPGYLGSGG [RET_Y826], the phosphorylation enrichment falls from 0.588 to 0.365.

Compared with KYLENYYDLEK [MMP3_Y41_K45E], TENAGYFFRVS is lower in phosphorylation enrichment: 0.664 for the first, 0.536 for the second.

Going from EVESPYEVHDY [GIGYF2_Y1168] to IVAREYFSKAD [CAMK2B_Y107_E110K_YF], the phosphorylation enrichment falls from 9.16 to 0.368.

Compared with QQLQGYIPSNY [FRK_Y99], NFFDLYGGEKF [PTPN11_Y66_D61N_YF] is higher in phosphorylation enrichment: 0.329 for the first, 0.553 for the second.

Going from LLPNAYIFVVQ [L1CAM_Y418_A415P_YF] to GRRNTCYASIA [ACADM_Y352_Y352C], the phosphorylation enrichment falls from 0.731 to 0.33.

Going from WIPNQYPIISE [NOG_Y222_I220N] to TISPYYRQSLF [CRYAA_Y48], the phosphorylation enrichment falls from 0.541 to 0.479.

First: EILLSDLRTGF [TGM1_Y365_Y365D_YF]
Second: PLCPDYQEPSR [DDR2_Y481_R478C]
The phosphorylation enrichment of the first is lower: 0.576 for the first, 0.999 for the second.

First: VLSIDYYFPPQ [AR_Y552_P549S]
Second: FSKTQYNQVPR [CXADR_Y318_S323R_YF]
The phosphorylation enrichment of the first is higher: 0.605 for the first, 0.367 for the second.

Going from RAIELCNDKEK [OTULIN_Y244_Y244C] to FFVVRYCWLRR [MPZ_Y181_YF], the phosphorylation enrichment rises from 0.471 to 0.493.

First: NLNGKCNKPRA [ANGPTL3_Y417_Y417C]
Second: IPGGIYNADLN [CST4_Y35_D36N]
The phosphorylation enrichment of the first is higher: 0.64 for the first, 0.472 for the second.

First: CTTIHYNYLCN [TP53_Y234_M237L]
Second: TYGQVYKGRHV [TNIK_Y40]
The phosphorylation enrichment of the first is higher: 0.568 for the first, 0.528 for the second.

Going from SIKDKYVTALY [KCNH2_Y611] to TPRNTYKMTSV [MKI67_Y849_L854V], the phosphorylation enrichment falls from 0.389 to 0.343.

Going from ATVRPYRPFII [LRP5_Y1528_A1525V_YF] to TPRNTYKMTSL [MKI67_Y849], the phosphorylation enrichment rises from 0.406 to 0.443.

Going from QDGFSYPSRQM [LDLR_Y847_YF] to RRESPYGGGGG [FUS_Y526_R524S], the phosphorylation enrichment rises from 0.409 to 0.436.

With DLDLTSIFPNI [PTEN_Y27_Y27S_YF] the phosphorylation enrichment was 0.441.

Each sequence was assayed against Fes (UniProt P07332) in the same assay as above.
Fes, sequence (P07332 whole entry, looked up): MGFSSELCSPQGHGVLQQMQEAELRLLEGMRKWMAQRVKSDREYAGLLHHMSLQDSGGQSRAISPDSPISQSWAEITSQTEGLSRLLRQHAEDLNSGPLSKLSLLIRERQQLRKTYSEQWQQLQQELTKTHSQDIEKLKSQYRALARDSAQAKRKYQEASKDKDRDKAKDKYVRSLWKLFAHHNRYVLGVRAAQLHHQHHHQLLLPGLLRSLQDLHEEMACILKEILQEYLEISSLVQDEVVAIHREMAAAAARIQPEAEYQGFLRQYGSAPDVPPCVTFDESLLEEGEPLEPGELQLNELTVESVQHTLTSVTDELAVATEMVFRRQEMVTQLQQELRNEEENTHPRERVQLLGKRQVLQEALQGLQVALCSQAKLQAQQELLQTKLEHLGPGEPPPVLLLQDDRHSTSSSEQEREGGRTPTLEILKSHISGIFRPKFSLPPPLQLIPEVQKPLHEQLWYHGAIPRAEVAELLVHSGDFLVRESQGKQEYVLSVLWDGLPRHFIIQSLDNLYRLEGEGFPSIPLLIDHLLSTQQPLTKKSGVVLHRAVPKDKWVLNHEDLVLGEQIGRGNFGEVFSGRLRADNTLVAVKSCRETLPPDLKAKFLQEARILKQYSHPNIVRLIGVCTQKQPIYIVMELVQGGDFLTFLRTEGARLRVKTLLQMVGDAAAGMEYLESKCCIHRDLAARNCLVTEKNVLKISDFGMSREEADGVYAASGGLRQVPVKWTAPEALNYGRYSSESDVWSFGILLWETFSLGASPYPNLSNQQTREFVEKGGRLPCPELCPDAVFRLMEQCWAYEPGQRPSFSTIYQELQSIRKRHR

Compared with VEKEKYVSYIS [JMJD1C_Y596_M591V], FQCKHYACIRQ [TIMP3_Y182_S179C_YF] is lower in phosphorylation enrichment: 0.826 for the first, 0.72 for the second.

Going from SDPIIYTLENI [ADGRE1_Y534] to KANEFYPVVLI [ADAMTS18_Y765_YF], the phosphorylation enrichment falls from 1.31 to 1.15.

Going from PAVGIYNGNIN [CDCP1_Y707_D709G] to KVGPGYLGSGG [RET_Y826], the phosphorylation enrichment falls from 1.15 to 0.451.

Compared with KYLENYYDLEK [MMP3_Y41_K45E], TENAGYFFRVS is higher in phosphorylation enrichment: 1.3 for the first, 1.36 for the second.

Going from EVESPYEVHDY [GIGYF2_Y1168] to IVAREYFSKAD [CAMK2B_Y107_E110K_YF], the phosphorylation enrichment falls from 1.1 to 0.693.

First: QQLQGYIPSNY [FRK_Y99]
Second: NFFDLYGGEKF [PTPN11_Y66_D61N_YF]
The phosphorylation enrichment of the first is lower: 0.671 for the first, 1.02 for the second.

First: LLPNAYIFVVQ [L1CAM_Y418_A415P_YF]
Second: GRRNTCYASIA [ACADM_Y352_Y352C]
The phosphorylation enrichment of the first is higher: 1.66 for the first, 0.644 for the second.

First: WIPNQYPIISE [NOG_Y222_I220N]
Second: TISPYYRQSLF [CRYAA_Y48]
The phosphorylation enrichment of the first is higher: 0.98 for the first, 0.787 for the second.

First: EILLSDLRTGF [TGM1_Y365_Y365D_YF]
Second: PLCPDYQEPSR [DDR2_Y481_R478C]
The phosphorylation enrichment of the first is lower: 0.891 for the first, 2 for the second.

Compared with VLSIDYYFPPQ [AR_Y552_P549S], FSKTQYNQVPR [CXADR_Y318_S323R_YF] is lower in phosphorylation enrichment: 1.09 for the first, 0.502 for the second.

Going from RAIELCNDKEK [OTULIN_Y244_Y244C] to FFVVRYCWLRR [MPZ_Y181_YF], the phosphorylation enrichment falls from 1.38 to 0.819.

First: NLNGKCNKPRA [ANGPTL3_Y417_Y417C]
Second: IPGGIYNADLN [CST4_Y35_D36N]
The phosphorylation enrichment of the first is lower: 0.558 for the first, 0.95 for the second.

First: CTTIHYNYLCN [TP53_Y234_M237L]
Second: TYGQVYKGRHV [TNIK_Y40]
The phosphorylation enrichment of the first is higher: 0.84 for the first, 0.488 for the second.

First: SIKDKYVTALY [KCNH2_Y611]
Second: TPRNTYKMTSV [MKI67_Y849_L854V]
The phosphorylation enrichment of the first is higher: 0.72 for the first, 0.558 for the second.

First: ATVRPYRPFII [LRP5_Y1528_A1525V_YF]
Second: TPRNTYKMTSL [MKI67_Y849]
The phosphorylation enrichment of the first is higher: 0.61 for the first, 0.512 for the second.

Compared with QDGFSYPSRQM [LDLR_Y847_YF], RRESPYGGGGG [FUS_Y526_R524S] is higher in phosphorylation enrichment: 0.53 for the first, 0.611 for the second.

DLDLTSIFPNI [PTEN_Y27_Y27S_YF] was tested, and the phosphorylation enrichment was 0.814.

The sequences below were run against Fyn (UniProt P06241) in the same assay as above.
Fyn, sequence (P06241 whole entry, looked up): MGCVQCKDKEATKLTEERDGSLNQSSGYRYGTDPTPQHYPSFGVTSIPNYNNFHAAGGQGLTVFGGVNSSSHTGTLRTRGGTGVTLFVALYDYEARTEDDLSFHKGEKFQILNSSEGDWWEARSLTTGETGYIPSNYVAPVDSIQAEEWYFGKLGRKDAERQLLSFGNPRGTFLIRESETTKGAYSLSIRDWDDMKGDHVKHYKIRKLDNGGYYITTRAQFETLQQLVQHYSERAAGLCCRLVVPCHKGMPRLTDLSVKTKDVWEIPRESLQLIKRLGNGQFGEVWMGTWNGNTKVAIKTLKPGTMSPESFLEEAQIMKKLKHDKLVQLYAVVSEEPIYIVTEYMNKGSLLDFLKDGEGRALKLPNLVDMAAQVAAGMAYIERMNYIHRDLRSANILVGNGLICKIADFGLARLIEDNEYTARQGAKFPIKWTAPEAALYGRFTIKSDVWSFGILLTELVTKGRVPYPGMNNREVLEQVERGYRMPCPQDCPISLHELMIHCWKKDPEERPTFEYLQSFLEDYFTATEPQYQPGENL

Compared with VEKEKYVSYIS [JMJD1C_Y596_M591V], FQCKHYACIRQ [TIMP3_Y182_S179C_YF] is lower in phosphorylation enrichment: 0.464 for the first, 0.365 for the second.

First: SDPIIYTLENI [ADGRE1_Y534]
Second: KANEFYPVVLI [ADAMTS18_Y765_YF]
The phosphorylation enrichment of the first is higher: 7.17 for the first, 0.482 for the second.

Going from PAVGIYNGNIN [CDCP1_Y707_D709G] to KVGPGYLGSGG [RET_Y826], the phosphorylation enrichment falls from 1.49 to 0.42.

Compared with KYLENYYDLEK [MMP3_Y41_K45E], TENAGYFFRVS is lower in phosphorylation enrichment: 5.37 for the first, 0.389 for the second.

Going from EVESPYEVHDY [GIGYF2_Y1168] to IVAREYFSKAD [CAMK2B_Y107_E110K_YF], the phosphorylation enrichment falls from 4.95 to 0.469.

First: QQLQGYIPSNY [FRK_Y99]
Second: NFFDLYGGEKF [PTPN11_Y66_D61N_YF]
The phosphorylation enrichment of the first is lower: 0.356 for the first, 1.79 for the second.

Going from LLPNAYIFVVQ [L1CAM_Y418_A415P_YF] to GRRNTCYASIA [ACADM_Y352_Y352C], the phosphorylation enrichment falls from 0.634 to 0.442.

First: WIPNQYPIISE [NOG_Y222_I220N]
Second: TISPYYRQSLF [CRYAA_Y48]
The phosphorylation enrichment of the first is lower: 0.361 for the first, 0.414 for the second.

Going from EILLSDLRTGF [TGM1_Y365_Y365D_YF] to PLCPDYQEPSR [DDR2_Y481_R478C], the phosphorylation enrichment rises from 0.464 to 1.12.

Going from VLSIDYYFPPQ [AR_Y552_P549S] to FSKTQYNQVPR [CXADR_Y318_S323R_YF], the phosphorylation enrichment falls from 1.03 to 0.437.

First: RAIELCNDKEK [OTULIN_Y244_Y244C]
Second: FFVVRYCWLRR [MPZ_Y181_YF]
The phosphorylation enrichment of the first is higher: 0.509 for the first, 0.495 for the second.

Compared with NLNGKCNKPRA [ANGPTL3_Y417_Y417C], IPGGIYNADLN [CST4_Y35_D36N] is higher in phosphorylation enrichment: 0.422 for the first, 1.27 for the second.

Going from CTTIHYNYLCN [TP53_Y234_M237L] to TYGQVYKGRHV [TNIK_Y40], the phosphorylation enrichment rises from 0.51 to 8.37.

Compared with SIKDKYVTALY [KCNH2_Y611], TPRNTYKMTSV [MKI67_Y849_L854V] is lower in phosphorylation enrichment: 0.489 for the first, 0.425 for the second.

Going from ATVRPYRPFII [LRP5_Y1528_A1525V_YF] to TPRNTYKMTSL [MKI67_Y849], the phosphorylation enrichment rises from 0.397 to 0.475.

First: QDGFSYPSRQM [LDLR_Y847_YF]
Second: RRESPYGGGGG [FUS_Y526_R524S]
The phosphorylation enrichment of the first is lower: 0.434 for the first, 0.451 for the second.

For DLDLTSIFPNI [PTEN_Y27_Y27S_YF], the phosphorylation enrichment was 0.475.
